The text below walks through data of publication PMC10567853, “USP1 promotes cholangiocarcinoma progression by deubiquitinating PARP1 to prevent its proteasomal degradation” (Cell Death & Disease, 2023).

The test addresses T1, Myc-tagged full-length (FL) PARP1 (UniProt P09874 1-1014).
T1 construct: also called Myc-PARP1
Put plainly: pull-down; GST, GST-USP1 or GST-USP1 C90S coupled to glutathione-Sepharose beads, incubated with purified Myc-PARP1; 50 mM Tris-HCl, 200 mM NaCl, 1 mM EDTA, 1% NP-40, 1 mM DTT, 10 mM MgCl2, pH 8.0; 4 °C, 4 hours. The settings on record: both partners purified.

Positions count from the first letter of the chain named.

T1 sequence (P09874 whole entry): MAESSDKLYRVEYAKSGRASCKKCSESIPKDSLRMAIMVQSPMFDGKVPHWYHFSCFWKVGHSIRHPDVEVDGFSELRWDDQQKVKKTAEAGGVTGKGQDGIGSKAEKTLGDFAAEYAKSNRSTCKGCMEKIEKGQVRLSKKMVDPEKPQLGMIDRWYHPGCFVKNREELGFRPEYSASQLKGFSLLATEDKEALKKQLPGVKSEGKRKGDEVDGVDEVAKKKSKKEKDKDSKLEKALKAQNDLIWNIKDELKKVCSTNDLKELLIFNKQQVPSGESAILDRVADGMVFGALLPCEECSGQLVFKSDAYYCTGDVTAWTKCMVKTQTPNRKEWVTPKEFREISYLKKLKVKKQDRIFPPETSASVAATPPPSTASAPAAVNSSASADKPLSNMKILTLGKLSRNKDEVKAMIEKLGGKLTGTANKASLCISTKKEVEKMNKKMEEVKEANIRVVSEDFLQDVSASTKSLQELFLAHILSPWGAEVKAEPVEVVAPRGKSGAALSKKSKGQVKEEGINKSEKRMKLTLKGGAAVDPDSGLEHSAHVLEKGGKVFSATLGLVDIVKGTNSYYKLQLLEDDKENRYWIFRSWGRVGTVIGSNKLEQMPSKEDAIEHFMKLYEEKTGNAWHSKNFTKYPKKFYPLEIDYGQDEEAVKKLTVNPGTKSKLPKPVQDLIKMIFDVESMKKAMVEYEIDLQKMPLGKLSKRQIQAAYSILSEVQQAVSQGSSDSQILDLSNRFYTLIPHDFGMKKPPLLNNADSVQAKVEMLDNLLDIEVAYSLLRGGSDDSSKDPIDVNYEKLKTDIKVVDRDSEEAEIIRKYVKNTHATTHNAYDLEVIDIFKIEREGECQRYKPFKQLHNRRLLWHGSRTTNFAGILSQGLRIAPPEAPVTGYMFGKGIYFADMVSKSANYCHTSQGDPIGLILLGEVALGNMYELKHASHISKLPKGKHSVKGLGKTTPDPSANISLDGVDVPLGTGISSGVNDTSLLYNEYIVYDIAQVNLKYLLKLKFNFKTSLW

B1: GST-USP1 (enzyme, UniProt O94782 1-785, looked up)
chain: MPGVIPSESNGLSRGSPSKKNRLSLKFFQKKETKRALDFTDSQENEEKASEYRASEIDQVVPAAQSSPINCEKRENLLPFVGLNNLGNTCYLNSILQVLYFCPGFKSGVKHLFNIISRKKEALKDEANQKDKGNCKEDSLASYELICSLQSLIISVEQLQASFLLNPEKYTDELATQPRRLLNTLRELNPMYEGYLQHDAQEVLQCILGNIQETCQLLKKEEVKNVAELPTKVEEIPHPKEEMNGINSIEMDSMRHSEDFKEKLPKGNGKRKSDTEFGNMKKKVKLSKEHQSLEENQRQTRSKRKATSDTLESPPKIIPKYISENESPRPSQKKSRVKINWLKSATKQPSILSKFCSLGKITTNQGVKGQSKENECDPEEDLGKCESDNTTNGCGLESPGNTVTPVNVNEVKPINKGEEQIGFELVEKLFQGQLVLRTRCLECESLTERREDFQDISVPVQEDELSKVEESSEISPEPKTEMKTLRWAISQFASVERIVGEDKYFCENCHHYTEAERSLLFDKMPEVITIHLKCFAASGLEFDCYGGGLSKINTPLLTPLKLSLEEWSTKPTNDSYGLFAVVMHSGITISSGHYTASVKVTDLNSLELDKGNFVVDQMCEIGKPEPLNEEEARGVVENYNDEEVSIRVGGNTQPSKVLNKKNVEAIGLLGGQKSKADYELYNKASNPDKVASTAFAENRNSETSDTTGTHESDRNKESSDQTGINISGFENKISYVVQSLKEYEGKWLLFDDSEVKVTEEKDFLNSLSPSTSPTSTPYLLFYKKL
notes: Coupled to glutathione-Sepharose beads in the pull-down; also called recombinant GST-USP1; source: E. coli BL21 (DE3), purified (GST-tag purification resin)
Turning to B1, the binding result was “binds”.

B2: GST-USP1 C90S (enzyme, UniProt O94782 1-785, looked up)
chain: B1 chain with C90S
notes: Coupled to glutathione-Sepharose beads in the pull-down; source: E. coli BL21 (DE3), purified (GST-tag purification resin)
As for B2, the binding result was “binds”.
